Measured values as given in paper PMC8273347.

Tests used:
[1] = target: 30S pre-initiation complex (30S subunit, IF3_(488), IF2, mRNA, GTP) (UniProt P0A707); test: FRET or BRET; stopped-flow chase as a1 (0.05 µM complex, 0.5 µM unlabelled IF1, TAKM7 buffer), with 100 µM Demeclocycline (Dem)
[2] = target: 30S initiation complex (30S subunit, IF3_(488), IF2, mRNA, GTP, fMet-tRNA^fMet) (UniProt P0A707); test: as above
[3] = target: 30S–IF3_(488) complex (30S ribosomal subunit with bound Alexa-488-labelled IF3) (UniProt P0A707); test: as above
[4] = target: 30S initiation complex (30S subunit, IF3_(488), IF2, mRNA, GTP, fMet-tRNA^fMet) (UniProt P0A707); test: FRET or BRET; stopped-flow chase as a1 (0.05 µM complex, 0.5 µM unlabelled IF1, TAKM7 buffer), with 100 µM Oxytetracycline (Otc)
[5] = target: 30S pre-initiation complex (30S subunit, IF3_(488), IF2, mRNA, GTP) (UniProt P0A707); test: as above
[6] = target: 30S initiation complex (30S subunit, IF3_(488), IF2, mRNA, GTP, fMet-tRNA^fMet) (UniProt P0A707); test: as above; remark: listed apart in the source
[7] = target: 30S–IF3_(488) complex (30S ribosomal subunit with bound Alexa-488-labelled IF3) (UniProt P0A707); test: as above
[8] = target: 30S pre-initiation complex (30S subunit, IF3_(488), IF2, mRNA, GTP) (UniProt P0A707); test: FRET or BRET; stopped-flow chase as a1 (0.05 µM complex, 0.5 µM unlabelled IF1, TAKM7 buffer), with 100 µM Tigecycline (Tig)
[9] = target: 30S initiation complex (30S subunit, IF3_(488), IF2, mRNA, GTP, fMet-tRNA^fMet) (UniProt P0A707); test: as above
[10] = target: 30S–IF3_(488) complex (30S ribosomal subunit with bound Alexa-488-labelled IF3) (UniProt P0A707); test: as above
[11] = target: 30S pre-initiation complex (30S subunit, IF3_(488), IF2, mRNA, GTP) (UniProt P0A707); test: FRET or BRET; stopped-flow chase: 0.05 µM 30S complex with IF3_(488) (donor) and IF1_(540Q) (acceptor) mixed with 10-fold excess (0.5 µM) unlabelled IF1, donor fluorescence in time, single exponential fit; TAKM7 buffer (25 mM Tris-HCl pH 7.4, 70 mM NH4Ac, 30 mM KCl, 7 mM MgCl2); no tetracycline
[12] = target: 30S initiation complex (30S subunit, IF3_(488), IF2, mRNA, GTP, fMet-tRNA^fMet) (UniProt P0A707); test: as above
[13] = target: 30S–IF3_(488) complex (30S ribosomal subunit with bound Alexa-488-labelled IF3) (UniProt P0A707); test: as above

IF1 D4C labelled with Atto-540Q (natural protein)
koff [1]: 0.02 s⁻¹ | koff [2]: 0.012 s⁻¹ | koff [3]: 0.2 s⁻¹ | koff [4]: 0.3 s⁻¹ | koff [5]: 0.02 s⁻¹ | koff [6]: 0.03 s⁻¹ | koff [7]: 0.26 s⁻¹ | koff [8]: 0.015 s⁻¹ | koff [9]: 0.015 s⁻¹ | koff [10]: 0.021 s⁻¹ | koff [11]: 0.03 s⁻¹ | koff [12]: 0.02 s⁻¹ | koff [13]: 0.3 s⁻¹
